Consider three molecules from patent US20040209839, “Human peroxisome proliferator activated receptor gamma” (published 2004).

The target in series [1] is hPPARgamma/hRXRalpha heterodimer (Homo sapiens, UniProt P37231;P19793 P37231:31-505,P19793:1-462). The series is described as follows: EMSA; strong retarded complex. The settings on record: tags: hPPARgamma in vitro translated, hRXRalpha baculovirus/Sf21 expressed, label: 32P end.
Series [2] deals with hPPARgamma (Homo sapiens, UniProt P37231 SEQ:20-494). The series is described as follows: EMSA; hPPARgamma alone, no complex. The settings on record: tags: T3 coupled reticulocyte lysate (Promega), label: 32P end.
Chain of hPPARgamma (P37231 31-505): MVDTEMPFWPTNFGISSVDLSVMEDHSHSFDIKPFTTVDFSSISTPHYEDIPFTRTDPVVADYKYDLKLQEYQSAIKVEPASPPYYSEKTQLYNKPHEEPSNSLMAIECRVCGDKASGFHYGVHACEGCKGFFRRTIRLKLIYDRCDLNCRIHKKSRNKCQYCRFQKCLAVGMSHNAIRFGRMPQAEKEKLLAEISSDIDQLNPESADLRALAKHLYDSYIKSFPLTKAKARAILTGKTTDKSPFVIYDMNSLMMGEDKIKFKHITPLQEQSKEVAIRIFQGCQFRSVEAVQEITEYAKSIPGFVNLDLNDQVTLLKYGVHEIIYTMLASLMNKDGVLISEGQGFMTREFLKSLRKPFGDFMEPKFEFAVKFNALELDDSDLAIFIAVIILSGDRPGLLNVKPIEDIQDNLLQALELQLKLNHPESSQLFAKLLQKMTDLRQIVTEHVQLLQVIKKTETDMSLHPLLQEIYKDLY

Chain of hPPARgamma/hRXRalpha heterodimer (P37231 31-505, chain 1 of 2): as the sequence (P37231 31-505) above
Chain of hPPARgamma/hRXRalpha heterodimer (P19793 whole entry, chain 2 of 2): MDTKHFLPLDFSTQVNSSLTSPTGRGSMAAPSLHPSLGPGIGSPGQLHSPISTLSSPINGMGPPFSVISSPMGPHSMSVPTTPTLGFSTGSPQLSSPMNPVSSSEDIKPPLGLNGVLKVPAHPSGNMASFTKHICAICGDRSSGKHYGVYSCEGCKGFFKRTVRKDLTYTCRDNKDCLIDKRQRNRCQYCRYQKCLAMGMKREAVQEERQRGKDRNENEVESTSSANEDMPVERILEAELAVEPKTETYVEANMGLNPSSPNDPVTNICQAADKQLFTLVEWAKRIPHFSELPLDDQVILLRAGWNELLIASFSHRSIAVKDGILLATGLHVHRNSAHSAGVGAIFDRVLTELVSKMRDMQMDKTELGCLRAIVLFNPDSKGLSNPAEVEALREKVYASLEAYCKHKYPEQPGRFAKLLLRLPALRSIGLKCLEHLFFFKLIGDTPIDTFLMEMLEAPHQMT

B1: hydratase (bifunctional enzyme) PPRE (dsDNA)
DNA 1: GATCCCTTTGACCTATTGAACTATTACCTACATTA
DNA 2: TAATGTAGGTAATAGTTCAATAGGTCAAAGGGATC
In the case of B1, the binding result in series [1] is reported as “binds”; in series [2] it was “no binding”.

B2: ApoA1 A site (dsDNA)
DNA 1: GATCCCCACTGAACCCTTGACCCCTGCCCTGCAGCA
DNA 2: TGCTGCAGGGCAGGGGTCAAGGGTTCAGTGGGGATC
As for B2, the binding result in series [1] was “binds”; in series [2], “no binding”.

B3: AOX PPRE (dsDNA)
DNA 1: CTAGCGATATCATGACCTTTGTCCTAGGCCTC
DNA 2: CTAGGAGGCCTAGGACAAAGGTCATGATATCG
For B3, the binding result in series [1] (5' CTAG overhangs) is “binds”; in series [2] (5' CTAG overhangs), “no binding”.
